What was measured:
[1] = target: non-specific ubiquitin-protein ligase (E3) from clam oocyte Fraction 1A
[2] = target: clam E3-C/cyclosome complex, activated, partially purified

B1: recombinant clam E2-C, bacterially expressed (protein)
chain: MSGQNIDPAANQVRQKERPRDMTTSKERHSVSKRLQQELRTLLMSGDPGITAFPDGDNLFKWVATLDGPKDTVYESLKYKLTLEFPSDYPYKPPVVKFTTPCWHPNVDQSGNICLDILKENWTASYDVRTILLSLQSLLGEPNNASPLNAQAADMWSNQTEYKKVLHEKYKTAQSKDK
With B1 the “formation of ubiquitin-protein conjugates” value [1] was “the recombinant clam E2 had no significant influence on the formation of ubiquitin-protein conjugates by the non-specific E3” and the “half-maximal activation of cyclin ubiquitination” value [2] was “half-maximal activation was obtained with 0.05 µM recombinant E2”.

From patent publication US6528633
